# Patent US20260224736A1 (Sanofi, published 2026)
# T1: human CD105 (human, UniProt P17813 26-658)
# T1 construct: whole, on cells; The target is presented on primary human HSCs; also called HuCD105; endoglin
# T1 sequence (looked up): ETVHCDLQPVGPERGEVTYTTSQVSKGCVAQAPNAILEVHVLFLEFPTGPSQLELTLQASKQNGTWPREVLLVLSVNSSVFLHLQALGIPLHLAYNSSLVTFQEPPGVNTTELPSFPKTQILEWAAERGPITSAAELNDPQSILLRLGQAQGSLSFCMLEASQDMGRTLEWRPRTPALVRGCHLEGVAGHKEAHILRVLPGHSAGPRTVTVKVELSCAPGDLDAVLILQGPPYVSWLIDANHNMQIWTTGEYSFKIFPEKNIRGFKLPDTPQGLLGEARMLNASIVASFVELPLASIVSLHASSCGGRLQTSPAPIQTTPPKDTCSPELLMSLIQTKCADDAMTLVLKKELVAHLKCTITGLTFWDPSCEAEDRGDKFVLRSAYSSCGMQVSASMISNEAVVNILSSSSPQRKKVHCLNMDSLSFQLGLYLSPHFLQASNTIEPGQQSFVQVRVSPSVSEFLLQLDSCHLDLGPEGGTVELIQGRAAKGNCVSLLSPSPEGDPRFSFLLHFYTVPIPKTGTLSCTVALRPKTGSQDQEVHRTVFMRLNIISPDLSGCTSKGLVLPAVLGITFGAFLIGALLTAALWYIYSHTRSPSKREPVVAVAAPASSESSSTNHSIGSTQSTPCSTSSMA
# Legend:
# human CD117 = target: T2, human CD117 (human, UniProt P10721 26-976); experiment: flow cytometry of primary human HSCs treated with Fab-conjugated KC3 LNPs; DiI fluorescence as measure of LNP binding
# T2 construct: whole, on cells; The target is presented on primary human HSCs, either in vitro or engrafted in NSG mice; No recombinant CD117 was used; also called HuCD117; c-kit
# T2 sequence (P10721 26-976): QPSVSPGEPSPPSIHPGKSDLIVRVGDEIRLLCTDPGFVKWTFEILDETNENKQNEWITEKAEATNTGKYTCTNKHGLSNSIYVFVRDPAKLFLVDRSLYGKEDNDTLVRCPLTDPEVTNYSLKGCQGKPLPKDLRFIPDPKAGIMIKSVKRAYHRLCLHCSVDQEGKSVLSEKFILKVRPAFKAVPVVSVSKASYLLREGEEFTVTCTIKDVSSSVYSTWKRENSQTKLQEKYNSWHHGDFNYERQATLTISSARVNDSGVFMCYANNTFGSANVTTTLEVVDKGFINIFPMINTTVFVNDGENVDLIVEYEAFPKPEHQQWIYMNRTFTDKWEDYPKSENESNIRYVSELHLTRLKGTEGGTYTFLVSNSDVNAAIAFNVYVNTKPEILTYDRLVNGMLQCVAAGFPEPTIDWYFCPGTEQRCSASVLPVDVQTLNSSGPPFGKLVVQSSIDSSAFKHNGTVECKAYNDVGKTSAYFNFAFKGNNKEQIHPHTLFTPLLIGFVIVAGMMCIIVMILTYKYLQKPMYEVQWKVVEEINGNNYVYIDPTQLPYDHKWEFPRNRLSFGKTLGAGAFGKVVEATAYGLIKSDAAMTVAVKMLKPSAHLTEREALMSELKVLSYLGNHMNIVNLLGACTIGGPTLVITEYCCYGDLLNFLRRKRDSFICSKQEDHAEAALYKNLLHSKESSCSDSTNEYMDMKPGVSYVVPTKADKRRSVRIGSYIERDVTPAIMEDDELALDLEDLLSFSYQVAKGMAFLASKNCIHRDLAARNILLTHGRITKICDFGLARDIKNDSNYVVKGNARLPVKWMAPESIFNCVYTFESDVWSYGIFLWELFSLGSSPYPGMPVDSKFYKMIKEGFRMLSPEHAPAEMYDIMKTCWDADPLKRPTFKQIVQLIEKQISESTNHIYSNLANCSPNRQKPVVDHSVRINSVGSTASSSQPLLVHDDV
# Excerpt: (§1) For conjugation with full-length antibodies, the LNPs were fused with a streptavidin moiety, and the conjugated full-size antibodies were tagged with biotin. Specifically, lysine groups on the streptavidin were reacted with Traut's reagent to covalently attach thiol groups. The thiolated streptavidin was then conjugated to DSPE-PEG(2k)-maleimide via covalent coupling between the maleimide group and the thiol groups attached to the streptavidin. The streptavidin-fused lipid was then reacted with the biotinylated antibody. Finally, the lipid-streptavidin-antibody conjugate was inserted into the LNP by incubation at 60° C. for 1 hour. The LNPs also incorporated a fluorescent lipid dye,′,1′-Dioctadecyl-3,′,3′,3′-Tetramethylindocarbocyanine-5,5′-Disulfonic Acid (DiIC(18)5-DS). The GFP mRNA was used to measure transfection, as the mRNA must enter the cell and escape the endosome to be transcribed into protein, allowing for fluorescence. The DiIC(18)5-DS was used as a measure of LNP targeting because the cells will have DiI fluorescence so long as the LNPs are capable of binding to the HSCs. Therefore, GFP expression provided a measure of LNP transfection while DiI positive events were representative of Fabs that target H—SCs. […] The HSCs were incubated with the LNPs for 24 and 72 hours, after which the GFP fluorescence and DiI fluorescence were measured using flow cytometry.
# human CD105 = target: T1, human CD105; experiment: as above
# Excerpt: as §1
binding result (human CD117),binding result (human CD105),Binder
binds,,"anti-HuCD117 Ab2 Fab bDS (Fab, V domains shown, C-terminal cysteine in the heavy chain covalently coupled to DSPE-PEG(2k)-maleimide (lipid conjugate inserted into the LNP), Tested only as a lipid-Fab conjugate on the surface of LNPs) VH: EVQLVESGGGLVQPGGSLRLSCAASGFTFSDADMDWVRQAPGKGLEWVGRTRNKAGSYTTEYAASVKGRFTISRDDSKNSLYLQMNSLKTEDTAVYYCAREPKYWIDFDLWGRGTLVTVSS VL: not shown"
,binds,"anti-HuCD105 Ab3 Fab bDS (Fab, V domains shown, C-terminal cysteine in the heavy chain covalently coupled to DSPE-PEG(2k)-maleimide (lipid conjugate inserted into the LNP), Tested only as a lipid-Fab conjugate on the surface of LNPs) VH: EVKLEESGGGLVQPGGSMKLSCAASGFTFSDAWMDWVRQSPEKGLEWVAEIRSKASNHATYYAESVKGRFTISRDDSKSSVYLQMNSLRAEDTGIYYCTRWRRFFDSWGQGTTLTVSS VL: QIVLSQSPAILSASPGEKVTMTCRASSSVSYMHWYQQKPGSSPKPWIYATSNLASGVPVRFSGSGSGTSYSLTISRVEAEDAATYYCQQWSSNPLTFGAGTKLELKR"
